# Laboratory results from patent US6333189A, “Method of making an electrotransport device” (ALZA Corporation, priority 1997, dated 2001).
# Ends that are not written are not given here.
# B1: PTH analog 1 (1-35) (ligand)
# peptide: SVSEIQLLHNLGKHRNSLRRVRWLRKKLKDVHNY-{HSL}
# B2: RPTH: recombinant PTH (RPTH), HPLC purified or crude Sep-Pak purified (peptide, UniProt P01270 32-115, looked up)
# Parathyroid hormone: SVSEIQLMHNLGKHLNSMERVEWLRKKLQDVHNFVALGAPLAPRDAGSQRPRKKEDNVLVESHEKSLGEADKADVNVLTKAKSQ
# What was measured:
# [1] = in vitro skin permeation; cited from earlier work
# [2] = in vitro and in vivo studies; cited from earlier work
# [3] = tested on: PTH receptor (rat osteosarcoma cell line UMR106); experiment: adenylate cyclase stimulation / cAMP in UMR106 cells (PTH receptor activation); assay type: cell-based; conditions: for EC50: cAMP, 5 minutes, 1 mM IBMX, read-out: EC-50 (effective concentration)
# Description: The peptide was then desalted and partially purified on a SepPak column. Individual peaks were isolated and analyzed by electrospray mass spectrometry to determine the composition.
# PTH concentrations were determined by OD280 using an extinction coefficient of 6600 for the recombinant peptide and 5500 for the synthetic peptide. […] Activation of the PTH receptor leads to an intracellular rise in cAMP concentration.
# The UMR106 cells were seeded at about 2.5×10^5 per well in a 48 well dish and allowed to grow to confluence. Assays were performed on cells 3-5 days postconfluence. The media (Dulbecco's modified Eagle's medium, DMEM, with fetal calf serum) was removed, and 1 mL of fresh media was applied. PTH (recombinant or synthetic) at various concentrations and 3-isobutyl-1-methyl xanthine (IBMX) at 1 mM final concentration were then added to each well of the plate, which was then incubated for 5 minutes at room temperature. The media was then removed and the cells quickly washed with ice cold PBS. The cells were then extracted twice with 1 mL of absolute ethanol. The two extractions were combined and the ethanol removed by evaporation. The extract was then redissolved in 1 mL of scintillation proximity buffer (SPA buffer) (Amersham, Arlington Heights, Ill.). The cAMP concentration was determined by assay using a scintillation proximity assay (SPA) kit available from Amersham.
# [4] = Circular dichroism in varying trifluoroethanol concentrations, PTH analogs; assay type: physicochemical; design: [θ]222 (mean residue ellipticity): unit not given here; conditions: for [θ]222 (mean residue ellipticity): pH 6.5 10 mM cacodylate, 20° C; for helicity: 30% (v/v) TFE
# Description: The trifluoroethanol (TFE) circular dichroism studies were done using an AVIV Associates, Inc. Model 62DS Circular Dichroism Spectrometer. Protein concentrations were determined from absorbance readings using calculated extinction coefficients for the analogs in 10 mM ionic buffer. TFE titrations were done from 0 to 50% TFE, scanning from 250 to 200 nm at 20° C. for each TFE sample.
# [5] = Stability when incubated with stripped stratum corneum; assay type: in vitro ADME, human
# [6] = In vitro electrotransport flux of the PTH analogs; conditions: retro-inverso versions, 1 mM, pH 5.0, 0.1 mA/cm^2, 32° C, BSA/Tween 20 receptor
# PTH receptor [7] = biological target: T1, PTH receptor (rat, UniProt P25961)
# Target sequence in this assay (P25961 27-591): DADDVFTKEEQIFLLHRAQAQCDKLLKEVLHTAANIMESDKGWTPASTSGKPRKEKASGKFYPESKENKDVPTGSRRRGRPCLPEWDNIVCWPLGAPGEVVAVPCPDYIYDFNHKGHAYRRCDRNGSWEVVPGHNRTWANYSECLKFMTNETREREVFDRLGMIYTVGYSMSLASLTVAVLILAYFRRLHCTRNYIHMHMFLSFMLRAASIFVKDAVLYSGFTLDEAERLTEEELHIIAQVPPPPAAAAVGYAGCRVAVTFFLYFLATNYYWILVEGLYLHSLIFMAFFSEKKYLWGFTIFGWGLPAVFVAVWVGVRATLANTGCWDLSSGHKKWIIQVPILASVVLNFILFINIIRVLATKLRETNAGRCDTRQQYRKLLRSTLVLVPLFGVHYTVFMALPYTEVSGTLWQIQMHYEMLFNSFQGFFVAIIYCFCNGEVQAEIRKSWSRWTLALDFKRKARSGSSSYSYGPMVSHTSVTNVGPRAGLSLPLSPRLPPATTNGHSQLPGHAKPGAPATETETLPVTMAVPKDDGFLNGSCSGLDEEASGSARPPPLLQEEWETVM
# PTH receptor (rat) = PTH receptor (rat) (UniProt P25961)
# PTH receptor [8] = biological target: T1, PTH receptor; experiment: Kd reported in the PTH analog activity assay on UMR106 cells; the method used for the Kd is not described
# PTH receptor (rat), sequence (P25961 27-591): as above
molecule,measurement,setting,value
NC(=O)[C@@H]1CCCN1C(=O)[C@H](Cc1cnc[nH]1)NC(=O)[C@@H]1CCC(=O)N1 [thyrotropin releasing hormone],electrotransport flux compared with passive diffusional flux,[1],higher than passive diffusional flux
NC(=O)CC[C@@H]1NC(=O)[C@H](Cc2ccccc2)NC(=O)[C@H](Cc2ccc(O)cc2)NC(=O)[C@@H](N)CSSC[C@@H](C(=O)N2CCC[C@H]2C(=O)N[C@@H](CCCN=C(N)N)C(=O)NCC(N)=O)NC(=O)[C@H](CC(N)=O)NC1=O [vasopressin],transdermal delivery via electrotransport,[2],possible
"PTH analog 1: FIG. 1B (SEQ ID NO:7): Met8Leu, Leu15Arg, Met18Leu, Glu19Arg, Glu22Arg, Gln29Lys, Phe34Tyr, homoserine lactone at the C-terminus",EC50,[3]; UMR106 cells,0.9 nM
same,[θ]222 (mean residue ellipticity),[4]; 0% TFE,-4205
same,[θ]222 (mean residue ellipticity),[4]; 10% TFE,-9333
same,[θ]222 (mean residue ellipticity),[4]; 20% TFE,-23098
same,helicity,[4],about 80%
same,[θ]222 (mean residue ellipticity),[4]; 30% TFE,-26334
same,[θ]222 (mean residue ellipticity),[4]; 40% TFE,-27580
same,[θ]222 (mean residue ellipticity),[4]; 50% TFE,-27705
same,stability when incubated with stripped stratum corneum,[5],not stable
same,median mass flux (95% confidence interval),"[6]; 95% CI: analog 1 0.1 to 0.7, analog 2 2.1 to 4.2",0.3 μg cm^-2 h^-1
same,average mass flux ± sd,"[6]; sd: analog 1 ±2.3, analog 2 ±3.7",1.4 μg cm^-2 h^-1
PTH analog 3: amino acid sequence of FIG. 1D (SEQ ID NO:9); recombinantly synthesized (SVSEIQLMHNLGKHLNSMERPEWLRKKPQDVHNF),activity (ability to stimulate adenylate cyclase),[3]; UMR106 cells,no measurable activity
same,[θ]222 (mean residue ellipticity),[4]; 0% TFE,-3867
same,[θ]222 (mean residue ellipticity),[4]; 10% TFE,-6479
same,[θ]222 (mean residue ellipticity),[4]; 20% TFE,-12329
same,helicity,[4],about 15%
same,[θ]222 (mean residue ellipticity),[4]; 30% TFE,-15161
same,[θ]222 (mean residue ellipticity),[4]; 40% TFE,-15191
same,[θ]222 (mean residue ellipticity),[4]; 50% TFE,-15395
same,helix in the absence of the helix-inducing TFE (in words),[4]; no TFE,essentially devoid of helix
Synthetic PTH having the wild-type sequence (ligand),"stimulation of adenylate cyclase (intracellular cAMP, scintillation proximity assay) in UMR106 cells",PTH receptor [7],4.4 nM
"Wild-type PTH: wild-type, parent PTH polypeptide, FIG. 1A (SEQ ID NO:6), 34 amino acid residues [reference compound]",EC50,[3]; UMR106 cells,4.4 nM
"insulin: insulin, cited electrotransport study",transdermal delivery via electrotransport,[2],possible
B1,"stimulation of adenylate cyclase (intracellular cAMP, scintillation proximity assay) in UMR106 cells",PTH receptor (rat),0.9 nM
same,Kd,PTH receptor [8],1.5 nM
B2,"adenylate cyclase stimulatory ability, crude Sep-Pak purified vs HPLC purified",[3]; crude Sep-Pak purified sample compared with HPLC purified RPTH,no significant difference in adenylate cyclase stimulatory ability
